Experimental data from patent US9926369B2, “Methods for treating hepatocellular cancer by administering an anti-Ang-2 antibody” (Regeneron Pharmaceuticals, Inc., priority 2009, dated 2018).

T1: hAng-1-WT binding to hTie-2-mFc (Homo sapiens, UniProt Q15389)
T1 sequence (Q15389 20-498 limits assumed): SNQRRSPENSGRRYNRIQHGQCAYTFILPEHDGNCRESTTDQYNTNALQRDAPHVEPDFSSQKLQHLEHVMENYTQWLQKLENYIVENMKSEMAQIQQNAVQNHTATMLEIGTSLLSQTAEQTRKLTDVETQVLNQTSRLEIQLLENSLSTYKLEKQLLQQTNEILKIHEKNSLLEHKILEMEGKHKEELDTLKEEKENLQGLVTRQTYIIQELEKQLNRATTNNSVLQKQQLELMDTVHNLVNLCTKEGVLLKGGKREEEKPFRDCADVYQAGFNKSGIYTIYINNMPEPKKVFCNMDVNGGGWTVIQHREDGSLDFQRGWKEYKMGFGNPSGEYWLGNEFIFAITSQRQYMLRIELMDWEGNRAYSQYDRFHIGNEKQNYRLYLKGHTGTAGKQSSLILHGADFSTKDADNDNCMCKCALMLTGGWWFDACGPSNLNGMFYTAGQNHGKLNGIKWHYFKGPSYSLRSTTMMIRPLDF

T2: hAng-2-WT binding to hTie-2-mFc (Homo sapiens, UniProt O15123)
T2 sequence (O15123 19-496): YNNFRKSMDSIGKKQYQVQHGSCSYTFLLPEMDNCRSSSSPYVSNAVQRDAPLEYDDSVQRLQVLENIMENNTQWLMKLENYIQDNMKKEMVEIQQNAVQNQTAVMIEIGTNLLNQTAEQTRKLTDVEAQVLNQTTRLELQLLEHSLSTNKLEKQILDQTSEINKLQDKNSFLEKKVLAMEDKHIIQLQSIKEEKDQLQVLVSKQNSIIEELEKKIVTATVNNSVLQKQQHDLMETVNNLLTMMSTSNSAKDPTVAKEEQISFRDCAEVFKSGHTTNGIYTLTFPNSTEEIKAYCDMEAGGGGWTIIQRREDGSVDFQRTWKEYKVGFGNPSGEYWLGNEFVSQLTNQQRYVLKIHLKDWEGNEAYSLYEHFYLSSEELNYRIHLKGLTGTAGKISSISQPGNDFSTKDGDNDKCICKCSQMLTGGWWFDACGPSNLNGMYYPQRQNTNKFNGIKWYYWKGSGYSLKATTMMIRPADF

B1: H1H690P: anti-Ang-2 antibody, HCVR/LCVR SEQ ID NOs 42/44 (antibody, V domains shown)
VH: EVQLVESGGGLVQPGESLRLSCAASGFTFSSYAMSWVRQGPGKGLEWVSSITGSGDTTYYADSVKGRFTISRDNSKNTLYLHMNSLRAEDTAVYYCAKDFLDYSTYLAFDLWGQGTMVTVSS
VL: EIVLTQSPATLSLSPGERATLSCRASQSVSSYLTWYQQKPGQAPRLLSYDASNRATGIPARFSGSGSGTDFTLTISSLEPEDFAVYYCQQRSNWPLTFGGGTKVEIK
B2: hTie-2-mFc: chimeric construct consisting of human Tie-2 conjugated to mouse IgG; positive control for blocking (protein)
chain: MDSLASLVLCGVSLLLSGTVEGAMDLILINSLPLVSDAETSLTCIASGWRPHEPITIGRDFEALMNQHQDPLEVTQDVTREWAKKVVWKREKASKINGAYFCEGRVRGEAIRIRTMKMRQQASFLPATLTMTVDKGDNVNISFKKVLIKEEDAVIYKNGSFIHSVPRHEVPDILEVHLPHAQPQDAGVYSARYIGGNLFTSAFTRLIVRRCEAQKWGPECNHLCTACMNNGVCHEDTGECICPPGFMGRTCEKACELHTFGRTCKERCSGQEGCKSYVFCLPDPYGCSCATGWKGLQCNEACHPGFYGPDCKLRCSCNNGEMCDRFQGCLCSPGWQGLQCEREGIPRMTPKIVDLPDHIEVNSGKFNPICKASGWPLPTNEEMTLVKPDGTVLHPKDFNHTDHFSVAIFTIHRILPPDSGVWVCSVNTVAGMVEKPFNISVKVLPKPLNAPNVIDTGHNFAVINISSEPYFGDGPIKSKKLLYKPVNHYEAWQHIQVTNEIVTLNYLEPRTEYELCVQLVRRGEGGEGHPGPVRRFTTASIGLPPPRGLNLLPKSQTTLNLTWQPIFPSSEDDFYVEVERRSVQKSDQQNIKVPGNLTSVLLNNLHPREQYVVRARVNTKAQGEWSEDLTAWTLSDILPPQPENIKISNITHSSAVISWTILDGYSISSITIRYKVQGKNEDQHVDVKIKNATIIQYQLKGLEPETAYQVDIFAENNIGSSNPAFSHELVTLPESQAPADLGGGKGPGEPRGPTIKPCPPCKCPAPNLLGGPSVFIFPPKIKDVLMISLSPIVTCVVVDVSEDDPDVQISWFVNNVEVHTAQTQTHREDYNSTLRVVSALPIQHQDWMSGKEFKCKVNNKDLPAPIERTISKPKGSVRAPQVYVLPPPEEEMTKKQVTLTCMVTDFMPEDIYVEWTNNGKTELNYKNTEPVLDSDGSYFMYSKLRVEKKNWVERNSYSCSVVHEGLHNHHTTKSFSRTPGK
B3: H1H724N: anti-Ang-2 antibody (724N) cloned onto human IgG1 (antibody, V domains shown)
VH: QVQLVESGGGVVQPGRSLRLSCAASGFTLSNYGMHWVRQAPGKGLEWVAVIWHDGSNTYYADSVKGRFTISRDNSKNTLYLQMNSLRAEDTAVYYCTREGLDFWSGYYPNWFDPWGQGTLVTVSS
VL: DIQMTQSPSSLSASVGDRVTITCRASQGIRNDLGWYQQKPGKAPKRLIYAASNLQGGVPSRFSGSGSGTEFTLTISSLQPEDFAAYYCLQHNIYPLTFGGGTKVEIK

What was measured:
[1] = system: Tie-2 phosphorylation (Ang-2-mediated) in HUVECs; assay: Inhibition of Ang-2-mediated Tie-2 phosphorylation in FOXO1-adenovirus infected HUVECs; assay type: cell-based, human; details: antibody 0.5 μg/ml
Protocol: Further, the inventors have shown that infection of HUVECs with an adenovirus encoding FOXO1 results in expression and secretion of Ang-2, followed by activation of Tie-2 phosphorylation (Daly et al. 2006 PNAS 103:15491).
Anti-Ang-2 antibodies were tested for their ability to inhibit Tie-2 phosphorylation. Briefly, 7×10^5 HUVECs (Vec Technologies, Rensselaer, N.Y.) were plated in 6 cm cell culture dishes in 3.5 ml of MCDB131 Complete medium (Vec Technologies, Rensselaer, N.Y.). The following day, the cells were washed with Opti-MEM (Invitrogen Corp., Carlsbad, Calif.) and fed with 2 ml of Opti-MEM. […] Cells were then washed with MCDB131 and fed with 2 ml of MCDB131 containing anti-Ang-2 antibodies at a concentration of 0.5 μg/ml. At twenty hours post infection, cells were lysed and subjected to Tie-2 immunoprecipitation as described by Daly et al., Proc. Natl. Acad. Sci. USA 103:15491-15496 (2006). Immunoglobulin was collected on protein A/G beads (Santa Cruz Biotechnology, Santa Cruz, Calif.) for one hour. Beads were washed with cold lysis buffer and resuspended in SDS sample buffer for analysis by western blot with antibodies specific for phosphotyrosine (Millipore, Billerica, Mass.) or Tie-2. Signals were detected using HRP-conjugated secondary antibodies and ECL reagents (GE Healthcare, Piscataway, N.J.). X-Ray films were scanned and the phospho-Tie-2 and Tie-2 signals were quantified using ImageJ software. The phospho-Tie-2/Tie-2 ratios were used to determine the % inhibition for each anti-Ang-2 antibody (i.e. Percent inhibition=Reduction in phospho-Tie-2/Tie-2 as compared to control).

[2] = system: retinal superficial vasculature; assay: Retinal vascularization in wild-type mice; assay type: in vivo; details: 12.5 mg/kg subcutaneous at P2, retina at P5
Protocol: (§1) In one set of experiments wild-type mice were used. In another set, mice expressing a human Ang-2 in place of the wild-type mouse Ang-2 (designated “hu-Ang-2 mice”) were used. The mice at two days of age (P2) were injected subcutaneously with either control Fc or with selected anti-Ang-2 antibodies at a dose of 12.5 mg/kg. Three days later (at P5), pups were euthanized, and eyeballs were enucleated and fixed in 4% PFA for 30 minutes. Retinas were dissected, stained with Griffonia simplicifolia lectin-1 for 3 hours or overnight at 4° C. to visualize the vasculature, and flat-mounted on microscope slides. Images were taken using a Nikon Eclipse 80i microscope camera and analyzed using Adobe Photoshop CS3, Fovea 4.0, and Scion 1.63 software.
(§2) Areas of the retina covered with superficial vasculature were measured and used as a readout of antibody activity. The reduction in the size of the vascular areas in mice treated with antibody compared to Fc-treated controls is presented in Table 34. The percent reduction in vascular area reflects the anti-angiogenic potency of the antibody. (N/D=not determined)

[3] = system: retinal superficial vasculature; assay: Retinal vascularization in hu-Ang-2 mice; assay type: in vivo; details: 12.5 mg/kg subcutaneous at P2, retina at P5
Protocol: as §1, §2

[4] = molecular target: T1, hAng-1-WT binding to hTie-2-mFc; assay: Biosensor SPR blocking of hAng-1-WT binding to hTie-2-mFc-ecto surface; assay type: biochemical; details: 10 nM hAng-1-WT
Protocol: In an effort to further assess the ability of selected anti-hAng-2 antibodies to block the binding of Ang-1 to Tie-2, a biosensor surface plasmon resonance experiment was conducted. In this experiment, a human Tie-2 full-length extracellular domain construct (hTie-2-mFc-ecto) was amine-coupled on a BIACORE™ chip to create a receptor coated surface. Selected anti-hAng-2 antibodies and control constructs, at 1 μM (100-fold excess over antigen), were premixed with 10 nM of hAng-1-WT, followed by 60 minutes incubation at 25° C. to allow antibody-antigen binding to reach equilibrium to form equilibrated solutions. The equilibrated solutions were injected over the receptor surfaces at 5 μL/min for 5 minutes at 25° C. Changes in resonance units (RU) due to the binding of the hAng-1-WT to hTie-2-mFc were determined. An irrelevant peptibody construct with no binding to hAng-1 was included in this experiment to establish the 0% blocking baseline, and a human Tie-2-mFc construct was used as a positive control for blocking. The amount of Ang-1 bound to Tie-2 following antibody preincubation, expressed as a percentage of the amount of Ang-1 bound to Tie-2 following negative control preincubation, is shown in Table 20. (A greater amount of Ang-1 binding to Tie-2 signifies a lower degree of antibody blocking).
(§3) The foregoing experiment was repeated using different amounts of Ang-2 blockers and controls. In particular, a human Tie-2 full-length extracellular domain construct (hTie-2-mFc-ecto) was amine-coupled on a BIACORE™ chip to create a receptor-coated surface. Selected anti-hAng-2 antibodies and control constructs (50 or 150 nM) were mixed with hAng-2-WT (25 nM) followed by 60 minutes incubation at 25° C. to allow antibody-antigen binding to reach equilibrium. The equilibrated solutions were injected over the receptor surfaces at 10 μL/min for 5 minutes at 25° C. To evaluate the ability of the selected anti-hAng-2 antibodies to block Ang-1-WT binding to hTie-2, a similar procedure was followed except the antibodies were tested at three concentrations (50, 100 or 1000 nM) and incubated with 10 nM of hAng-1-WT. Changes in resonance units (RU) due to the binding of the Ang-2-WT or hAng-1-WT to hTie-2-mFc were determined. An irrelevant antibody with no binding to either angiopoietin was included in these experiments to establish the 0% blocking baseline, and a human Tie-2-mFc construct was used as a positive control for blocking. Results are summarized in Tables 21 (hAng-1 applied to a hTie-2 surface) and 22 (hAng-2 applied to a hTie-2 surface).

[5] = molecular target: T2, hAng-2-WT binding to hTie-2-mFc; assay: Biosensor SPR blocking of hAng-2-WT binding to hTie-2-mFc-ecto surface; assay type: biochemical; details: 25 nM hAng-2-WT
Protocol: as §3

[6] = system: PC3 (Human Prostate Cancer Cell Line) tumors; assay: PC3 mouse tumor model; assay type: in vivo, NCr nude mice; details: PC3, 10 mg/kg intraperitoneal twice per week
Protocol: Briefly, 5×10^6 PC3 cells in 100 μl of growth factor-reduced Matrigel (BD Biosciences) were injected subcutaneously into the flanks of 6-8 week old male NCr nude mice (Taconic, Hudson, N.Y.). After tumor volumes reached an average of about 200 mm^3, mice were randomized into groups for treatment. […] Tumor volumes were measured twice per week over the course of the experiment and tumor weights were measured upon excision of tumors at the conclusion of the experiment. Averages (mean+/−standard deviation) of tumor weight and growth were calculated for each treatment group. Percent decrease of tumor weight and growth were calculated from comparison to Fc protein measurements.

Molecule	Inhibition of Tie-2 phosphorylation [1]	Inhibition of Tie-2 phosphorylation (in words) [1]	% Reduction in Vascular Area Relative to Fc Control, Wild-Type Mice [2] [%]	% Reduction in Vascular Area Relative to Fc Control, hAng-2 Mice [3] [%]	Percent of Neg. Ctrl Binding (hAng-1 WT) ([4]; 50 nM antibody or control) [%]	Specific Bound RU (hAng-1 WT) ([4]; 50 nM antibody or control) [RU]	Percent of Neg. Ctrl Binding (hAng-1 WT) ([4]; 100 nM antibody or control) [%]	Specific Bound RU (hAng-1 WT) ([4]; 100 nM antibody or control) [RU]	Percent of Neg. Ctrl Binding (hAng-1 WT) ([4]; 1000 nM antibody or control) [%]	Specific Bound RU (hAng-1 WT) ([4]; 1000 nM antibody or control) [RU]	Percent of Neg. Ctrl Binding (hAng-2 WT) ([5]; 50 nM antibody or control) [%]	Specific Bound RU (hAng-2 WT) ([5]; 50 nM antibody or control) [RU]	Percent of Neg. Ctrl Binding (hAng-2 WT) ([5]; 150 nM antibody or control) [%]	Specific Bound RU (hAng-2 WT) ([5]; 150 nM antibody or control) [RU]	Avg Tumor Weight ([6]; approximately three weeks, mean ± SD) [g]	Avg Tumor Growth ([6]; mean ± SD) [mm^3]	% Decrease in Tumor Growth ([6]; vs Fc protein) [%]	% Decrease in Tumor Weight ([6]; vs Fc protein) [%]
B1	+++ (75-100%)	Especially robust inhibition	30.7	41.5	–	–	–	–	–	–	–	–	–	–	–	–	–	–
B2	–	–	–	–	22	70	13	39	0	−47	35	97	30	82	–	–	–	–
B3	–	–	32.2	33.2	–	–	–	–	–	–	–	–	–	–	0.55 ± 0.07	392 ± 169	23	17
